In US20250197505A1 (DREN BIO, published 2025):
Residue numbers refer to the chain shown, from its start. Each block holds one binder with its values, some of them ahead of it.

What was measured:
[1] = target: T1, human CD94 expressed on cells (human primary NK cells in PBMCs; HEK cells expressing human CD94) (human, UniProt Q13241 1-179); assay: cell-based or functional assay
T1 sequence (looked up): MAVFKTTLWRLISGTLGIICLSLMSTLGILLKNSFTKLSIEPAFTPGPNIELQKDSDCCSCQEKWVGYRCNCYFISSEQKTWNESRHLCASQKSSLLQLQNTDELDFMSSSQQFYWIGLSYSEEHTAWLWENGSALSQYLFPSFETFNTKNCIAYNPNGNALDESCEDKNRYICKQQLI

human CD94 protein = target: T2, human CD94 protein (human, UniProt Q13241 34-179, limits assumed); assay: OCTET BLI, Fab on human CD94 protein
T2 sequence (looked up): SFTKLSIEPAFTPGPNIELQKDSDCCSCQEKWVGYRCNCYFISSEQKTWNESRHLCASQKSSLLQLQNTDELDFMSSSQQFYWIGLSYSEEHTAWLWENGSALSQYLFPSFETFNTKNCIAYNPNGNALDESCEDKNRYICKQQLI

[2] = target: T1, human CD94 expressed on cells (human …); assay: flow cytometry, HEK cells expressing human CD94, 2nd run
Procedure: (§1) Binding of the variant antibodies to HEK cells expressing human CD94 was also tested. Variants and ATX-130 antibodies were generated in human IgG1 form, and binding to HEK cells expressing human CD94 was assessed using flow cytometry. Experiments were run in duplicate, and the average EC50 of the 2 runs was calculated.

[3] = target: T1, human CD94 expressed on cells (human …); assay: flow cytometry, HEK cells expressing human CD94, 1st run
Procedure: as §1

[4] = target: T1, human CD94 expressed on cells (human …); assay: flow cytometry, HEK cells expressing human CD94, average of 2 runs
Procedure: as §1

B2: ATX-130 Fab (Fab, V domains shown)
VH: EVQLLESGGGLVKPGGSLRLSCAASGFTFSSYSMNWVRQAPGKGLEWVSSISTSSNFIYYADSVKGRFTISRDNAKNSLYLQMNSLRAEDTAVYYCARDLGRYYYYMDVWGKGTTVTVSS
VL: DIVMTQSPSSLSASVGDRVTITCRASQSISSWLAWYQQKPGKAPKSLIYAASSLQSGVPSKFSGSGSGTDFTLTISSLQPEDVATYYCQKYNSAPFTFGPGTKVDIK
notes: Fab version
koff (human CD94 protein): 0.0029 s⁻¹

B3: ATX-130 hG1 (antibody, V domains shown)
VH: B2 VH
VL: B2 VL
notes: Human IgG1 form; also called ATX-130 human IgG1
EC50 [2]: 0.12 nM | EC50 [3]: 0.11 nM | EC50 [4]: 0.12 nM

B5: Ab.26 Fab (Fab, V domains shown)
VH: B2 VH
VL: B2 VL with V3Q
notes: Fab version
koff (human CD94 protein): 0.00446 s⁻¹

B10: Ab.29 Fab (Fab, V domains shown)
VH: B2 VH
VL: B2 VL with A43V
notes: Fab version
koff (human CD94 protein): 0.00338 s⁻¹

B11: Ab.31 hG1 (antibody, V domains shown)
VH: B2 VH
VL: B2 VL with K61R
notes: Human IgG1 form; also called Ab.31 human IgG1
EC50 [2]: 0.12 nM | EC50 [3]: 0.1 nM | EC50 [4]: 0.11 nM

B12: Ab.28 hG1 (antibody, V domains shown)
VH: B2 VH
VL: B2 VL with G41E
notes: Human IgG1 form; also called Ab.28 human IgG1
EC50 [2]: 0.11 nM | EC50 [3]: 0.11 nM | EC50 [4]: 0.11 nM

B13: Ab.27 hG1 (antibody, V domains shown)
VH: B2 VH
VL: B2 VL with Y36F
notes: Human IgG1 form; also called Ab.27 human IgG1
EC50 [2]: 0.17 nM | EC50 [3]: 0.26 nM | EC50 [4]: 0.22 nM

B14: Ab.27 Fab (Fab, V domains shown)
VH: B2 VH
VL: B2 VL with Y36F
notes: Fab version
koff (human CD94 protein): 0.00421 s⁻¹

B15: Ab.32 hG1 (antibody, V domains shown)
VH: B2 VH
VL: B2 VL with V83F
notes: Human IgG1 form; also called Ab.32 human IgG1
EC50 [2]: 0.11 nM | EC50 [3]: 0.12 nM | EC50 [4]: 0.12 nM

B17: Ab.32 Fab (Fab, V domains shown)
VH: B2 VH
VL: B2 VL with V83F
notes: Fab version
koff (human CD94 protein): 0.0031 s⁻¹

B22: Ab.34 hG1 (antibody, V domains shown)
VH: B2 VH
VL: B2 VL with A94Y
notes: Human IgG1 form; also called Ab.34 human IgG1
EC50 [2]: 0.13 nM | EC50 [3]: 0.16 nM | EC50 [4]: 0.15 nM

The next lines start with the values.

IC50 of CLPD-NK leukemic cell depletion, ADCC assay with CLPD-NK patient PBMCs [1]: 0.059 µg/mL | IC50 of NK cell depletion, ADCC assay with healthy donor PBMCs [1]: 0.02 µg/mL
B1: 18H3-KIF (partially non-fucosylated human IgG1 18H3 produced in Expi-CHO cells with kifunensine) (antibody, V domains shown)
VH: EVQLVQSGAEVKKPGESLKISCKGSGYRFTSYWIGWVRQMPGKGLEWMGIIYPGDSDTRYSPSFQGQVIISADKSITTAFLQWSSLKASDTAMYYCARPFDYGGSPGYFDYWGQGTLVTVSS
VL: DIQMTQSPSTLSASVGDRVTITCRASQSIRSWLAWYQQKPGKAPKLLIYKASSLESGVPSRFSGSGSGTEFTLTISSLQPDDFATYYCQQYNTFWTFGQGTKVEIK

koff (human CD94 protein): 0.00695 s⁻¹
B4: Ab.24 Fab (Fab, V domains shown)
VH: B2 VH with N56S
VL: B2 VL
notes: Fab version

EC50 [2]: 0.12 nM | EC50 [3]: 0.12 nM | EC50 [4]: 0.12 nM
B6: Ab.22 hG1 (antibody, V domains shown)
VH: B2 VH with L5V
VL: B2 VL
notes: Human IgG1 form; also called Ab.22 human IgG1

koff (human CD94 protein): 0.00576 s⁻¹
B7: Ab.34 Fab (Fab, V domains shown)
VH: B2 VH
VL: B2 VL with A94Y
notes: Fab version

EC50 [2]: 0.13 nM | EC50 [3]: 0.25 nM | EC50 [4]: 0.19 nM
B8: Ab.33 hG1 (antibody, V domains shown)
VH: B2 VH
VL: B2 VL with K90Q
notes: Human IgG1 form; also called Ab.33 human IgG1

koff (human CD94 protein): 0.00425 s⁻¹
B9: Ab.28 Fab (Fab, V domains shown)
VH: B2 VH
VL: B2 VL with G41E
notes: Fab version

EC50 [2]: 0.14 nM | EC50 [3]: 0.14 nM | EC50 [4]: 0.14 nM
B16: Ab.26 hG1 (antibody, V domains shown)
VH: B2 VH
VL: B2 VL with V3Q
notes: Human IgG1 form; also called Ab.26 human IgG1

koff (human CD94 protein): 0.00387 s⁻¹
B18: Ab.25 Fab (Fab, V domains shown)
VH: B2 VH with F57Y
VL: B2 VL
notes: Fab version; VH cell printed as 'SEO ID NO: 32'

EC50 [2]: 0.13 nM | EC50 [3]: 0.18 nM | EC50 [4]: 0.16 nM
B19: Ab.29 hG1 (antibody, V domains shown)
VH: B2 VH
VL: B2 VL with A43V
notes: Human IgG1 form; also called Ab.29 human IgG1

koff (human CD94 protein): 0.00238 s⁻¹
B20: Ab.22 Fab (Fab, V domains shown)
VH: B2 VH with L5V
VL: B2 VL
notes: Fab version

koff (human CD94 protein): 0.00352 s⁻¹
B21: Ab.31 Fab (Fab, V domains shown)
VH: B2 VH
VL: B2 VL with K61R
notes: Fab version

koff (human CD94 protein): 0.00481 s⁻¹
B23: Ab.33 Fab (Fab, V domains shown)
VH: B2 VH
VL: B2 VL with K90Q
notes: Fab version

EC50 [2]: 0.13 nM | EC50 [3]: 0.14 nM | EC50 [4]: 0.14 nM
B24: Ab.24 hG1 (antibody, V domains shown)
VH: B2 VH with N56S
VL: B2 VL
notes: Human IgG1 form; also called Ab.24 human IgG1

EC50 [2]: 0.14 nM | EC50 [3]: 0.15 nM | EC50 [4]: 0.15 nM
B25: Ab.25 hG1 (antibody, V domains shown)
VH: B2 VH with F57Y
VL: B2 VL
notes: Human IgG1 form; VH cell printed as 'SEO ID NO: 32'; also called Ab.25 human IgG1
